This data set deals with the molecule itself. Description: cryo-EM structure.

B1: Barley stripe mosaic virus coat protein, in wild-type virions (wtBSMV) (natural protein)
chain: MPNVSLTAKGGGHYIEDQWDTQVVEAGVFDDWWVHVEAWNKFLDNLRGINFSVASSRSQVAEYLAALDRDLPADVDRRFAGARGQIGSPNYLPAPKFFRLDKRTIAELTRLSRLTDQPHNNRDIELNRAKRATTNPSPPAQAPSENLTLRDVQPLKDSALHYQYVLIDLQSARLPVYTRKTFERELALEWIIPDAEEA
With B1, the binding result was “binds”.

These data come from article PMC4597109 (Structure(London, England:1993), 2015).
